Data reported in patent publication US20240398942A1 (CHIA TAI TIANQING PHARMACEUTICAL GROUP, published 2024).
Where a chain is given by its changes, count along the chain named. Read-outs that look alike come from different tables or passages of the source.

Legend:
human CD40-Fc protein = target: T1, human CD40-Fc protein (human, biotinylated (sites not given) in the capture ELISA and the benchmark blocking ELISA; not biotinylated in the ligand blocking ELISA); test: competitive ELISA (self-competition): BM2 (selicrelumab) coated as competitor, soluble BM2 titrated and pre-mixed with biotinylated human CD40-Fc 0.23 nM, streptavidin-HRP, OD(450-630)
T1 construct: also called biotinylated human CD40-Fc
Experimental: The ability of the anti-CD40 antibody of the present application to block the binding of the benchmark to human CD40 was determined by competitive ELISA. Briefly, BM2 antibody was immobilized on a 96-well micro plates at 1 μg/mL in PBS, 100 µL/well, and incubated overnight at 4° C. The next day, the plate was washed once with a washing buffer before a blocking buffer (PBST containing 5% w/v of skim milk) was added. The plate was then incubated at 37° C. for 2 h for blocking. During the blocking of the 96-well plate, the anti-CD40 antibody of the present application or the benchmark was serially 5-fold diluted from 66.7 nM with a biotinylated human CD40-Fc protein (amino acid residues 21-193 of SEQ ID NO: 30 linked to the N terminus of amino acid residues 99-330 of SEQ ID NO: 28, dissolved in PBST containing 2.5% w/v of skim milk at a concentration of 0.23 nM) and then incubated at room temperature for 40 min. After the plate was washed 4 times, the antibody/biotinylated human CD40-Fc mixture was added at 100 μL/well to the plate coated with BM2. The plate was incubated at 37° C. for 40 min and again washed 4 times with the washing buffer. […] The absorbance was read on a microplate reader using the dual wavelength mode (TMB detection wavelength: 450 nm, reference wavelength: 630 nm). […] Data were analyzed using Graphpad Prism software, and IC₅₀ values were obtained.

[1] = target: T2, cynomolgus monkey CD40-his protein (Acro biosystems, Cat. No. CD0-C52H6) (cynomolgus monkey, UniProt G7PG38 21-193); test: SPR (Biacore T200), antibody captured, CD40-his as analyte, 1:1 fit
T2 construct: Bought protein; not shown: His tag
From the text: (§1) Briefly, a goat anti-human IgG (GE Healthcare, Cat. No. BR100839, human antibody capture kit) was covalently linked to a CM5 chip (GE Healthcare, Cat. No. BR100530, carboxymethylated dextran-coated chip) via the primary amine group using a standard amine coupling kit supplied by Biacore (GE Healthcare, Pittsburgh, PA, USA). Unreacted portions on the biosensor surface were blocked with ethanolamine. Then, the anti-CD40 antibody of the present application and two benchmark antibodies (BM1 (dacetuzumab, Genentech Inc., also referred to CD40-BM1, prepared in-house; the heavy and light chain amino acid sequences are set forth in SEQ ID NOs: 40 and 41, respectively) and BM2 (selicrelumab, Abgenix Inc., also referred to CD40-BM2, prepared in-house; the heavy and light chain amino acid sequences are set forth in SEQ ID NOS: 42 and 43, respectively)) at a concentration of 66.67 nM were directed through the chip at a flow rate of 10 μL/min. Then, serially diluted recombinant human CD40-his (Acro biosystems, Cat. No. CD0-H5228, serially 2-fold diluted from 80 nM in HBS-EP⁺ buffer (supplied by Biacore)) or cynomolgus monkey CD40-his protein (Acro biosystems, Cat. No. CD0-C52H6, serially 2-fold diluted from 80 nM in HBS-EP⁺ buffer (supplied by Biacore)) was directed through the chip at a flow rate of 30 μL/min. The antigen-antibody binding kinetics was tracked for 2 min and the dissociation kinetics was tracked for 10 min. The association and dissociation curves were fitted to a 1:1 Langmuir binding model using BIAcore evaluation software. KD, Kₐ, and Kd values were determined.

[2] = target: T3, recombinant human CD40-his (Acro biosystems, Cat. No. CD0-H5228) (human, UniProt P25942 21-193); test: as above
T3 construct: Bought protein; also called human CD40-his protein; not shown: His tag
From the text: as §1

[3] = target: T2, cynomolgus monkey CD40-his protein …; test: as above; remark: listed apart in the source
[4] = target: T3, recombinant human CD40-his (Acro …); test: as above; remark: listed apart in the source
[5] = target: T3, recombinant human CD40-his (Acro …); test: BLI (Octet RED 96), antibody captured from cell supernatant on AHC sensor, human CD40-his as analyte, 1:1 fit
Experimental: After six days of culture in a shake flask, the cell supernatant containing the humanized antibodies huC1H1-V1 to huC1H1-V4 was harvested and the binding affinity of the antibodies to human CD40 was determined on an Octet system (Fortebio, Octet RED 96) according to the following procedures. Briefly, an anti-human IgG Fc capture (AHC) biosensor (from ForteBio) was pre-soaked in a 10 mM glycine solution (pH 1.5) for 3 s, and then soaked in a running buffer (PBST containing 0.5% w/v of BSA) for 3 s. The pre-soaking and soaking procedures were repeated 3 times. Then, the sensor was soaked in the cell supernatant containing the humanized anti-CD40 antibody, chimeric antibody C1H1 dissolved in HBS-EP⁺ buffer at a concentration of 5 μg/mL, or the benchmark dissolved in HBS-EP⁺ buffer at a concentration of 5 μg/mL for 120 s, and then soaked in the running buffer for 5 min. The new baseline was run in the running buffer for 180 s. The sensor was then soaked for 120 s in human CD40-his protein (Acro biosystems, Cat. No. CD0-H5228) 2-fold serially diluted from 40 nM in the running buffer and for 10 min in the running buffer […]. Finally, the sensor was pre-soaked in a 10 mM glycine solution (pH 1.5) for 3 s, and then soaked in the running buffer for 3 s. The pre-soaking and soaking procedures were repeated 3 times. The association and dissociation curves were fitted to a 1:1 Langmuir binding model using ForteBio Data Analysis 8.1.

B1: BM2 (selicrelumab) (antibody, human IgG2, kappa, V domains shown)
VH: not shown
VL: DIQMTQSPSSVSASVGDRVTITCRASQGIYSWLAWYQQKPGKAPNLLIYTASTLQSGVPSRFSGSGSGTDFTLTISSLQPEDFATYYCQQANIFPLTFGGGTKVEIKR
notes: Benchmark antibody, prepared in-house; also called CD40-BM2; benchmark
Which IC50 (human CD40-Fc protein) does the source give for B1 here?
The IC50 was 529 pM.

B2: mouse anti-CD40 monoclonal antibody C1H1 (antibody, V domains shown)
VH: EVKLVESGGGLVKPGASLKLSCAASGFTFSNYGISWVRQTSDKRLEWVASISSGGDNTYYPDNVKGRFTISRENAKNTLYLQMSSLKSEDTALYYCARAGEKAMDYWGQGTSVTVSS
VL: DIVLTQSPVTLSVTPGDSVSLSCRASQTINNNLHWYQQKSHESPRLLIKYASQSISGIPSRFSGSGSGTDFTLSINSVETEDFGIYFCQQFSSWPLTFGAGTKLELK
notes: Parent mouse antibody from a hybridoma; the mouse constant regions are not; also called Mouse C1H1
B2 was tested. Which Kd [1] did it give?
The Kd was 852 pM.

What about the koff [1] of the same binder?
The koff was 0.00118 s⁻¹.

And the kon [1]?
Its kon is 1.39e+06 M⁻¹ s⁻¹.

What about the Kd [2] of the same binder?
The Kd was 684 pM.

And the koff [2]?
The koff was 0.00123 s⁻¹.

And the kon [2]?
Its kon is 1.79e+06 M⁻¹ s⁻¹.

What about the Kd [3] of the same binder?
Its Kd is 377 pM.

What about the koff [3] of the same binder?
The koff was 0.000863 s⁻¹.

What about the kon [3] of the same binder?
Its kon is 2.29e+06 M⁻¹ s⁻¹.

What about the Kd [4] of the same binder?
The Kd was 428 pM.

And the koff [4]?
Its koff is 0.000897 s⁻¹.

What about the kon [4] of the same binder?
Its kon is 2.1e+06 M⁻¹ s⁻¹.

B3: humanized antibody huC1H1-V1 (antibody, human IgG2, kappa, V domains shown)
VH: EVQLVESGGGLVKPGGSLRLSCAASGFTFSNYGISWVRQAPGKGLEWVASISSGGDNTYYPDNVKGRFTISRDNAKNSLYLQMNSLRAEDTAVYYCARAGEKAMDYWGQGTLVTVSS
VL: EIVLTQSPATLSLSPGERATLSCRASQTINNNLHWYQQKPGQAPRLLIKYASQSISGIPARFSGSGSGTDFTLTISSLEPEDFAVYFCQQFSSWPLTFGGGTKVEIKR
notes: Human IgG2 / kappa
For B3, which Kd [5] is on record?
Its Kd is 904 pM.

What about the koff [5] of the same binder?
Its koff is 0.00128 s⁻¹.

And the kon [5]?
The kon was 1.41e+06 M⁻¹ s⁻¹.

B4: humanized antibody huC1H1-V2 (antibody, human IgG2, kappa, V domains shown)
VH: B3 VH with A49S
VL: B3 VL
notes: Human IgG2 / kappa
What does the source list for B4?
Kd [5]: 596 pM; koff [5]: 0.000981 s⁻¹; kon [5]: 1.65e+06 M⁻¹ s⁻¹
